The assay concerns the target T1, 人PSMA抗原 (前列腺特异性膜抗原, prostrate specific membrane antigen) (human, UniProt Q04609 1-750).
T1 construct: whole, on cells; it is treated here as the same protein; also called PSMA蛋白
Briefly: FACS, scFv culture supernatant on 293T-PSMA cells, APC anti 6XHis secondary. On the technique in general: In flow cytometry, cells or beads pass a laser one at a time.

T1 sequence (Q04609 whole entry): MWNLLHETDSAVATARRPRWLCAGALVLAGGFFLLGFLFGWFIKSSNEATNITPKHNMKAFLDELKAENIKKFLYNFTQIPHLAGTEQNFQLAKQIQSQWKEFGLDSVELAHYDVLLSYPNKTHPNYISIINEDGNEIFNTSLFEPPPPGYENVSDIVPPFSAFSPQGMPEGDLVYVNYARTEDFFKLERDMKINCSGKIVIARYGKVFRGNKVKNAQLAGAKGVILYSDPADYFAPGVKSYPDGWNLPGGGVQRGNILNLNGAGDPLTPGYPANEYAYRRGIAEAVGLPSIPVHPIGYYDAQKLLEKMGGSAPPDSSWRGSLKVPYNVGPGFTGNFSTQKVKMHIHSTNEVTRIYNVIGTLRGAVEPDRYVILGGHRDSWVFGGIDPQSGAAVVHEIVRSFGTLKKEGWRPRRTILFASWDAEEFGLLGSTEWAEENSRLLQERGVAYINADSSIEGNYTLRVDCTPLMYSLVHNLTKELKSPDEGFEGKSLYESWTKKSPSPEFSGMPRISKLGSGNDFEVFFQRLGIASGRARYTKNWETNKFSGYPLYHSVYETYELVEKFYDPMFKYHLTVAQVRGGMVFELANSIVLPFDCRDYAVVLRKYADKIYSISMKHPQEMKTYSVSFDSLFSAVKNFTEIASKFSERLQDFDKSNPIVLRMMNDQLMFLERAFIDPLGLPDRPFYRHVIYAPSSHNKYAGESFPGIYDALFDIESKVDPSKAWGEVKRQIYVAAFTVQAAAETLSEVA

B1: 抗PSMA单链抗体1 (scFv, V domains shown)
VH: EVQLVESGGGVVQPGRSLRLSCAASGFTFSSYAMHWVRQAPGKGLEWVAVISYDGSNKYYADSVKGRFTISRDNSKNTLYLQMNSLRAEDTAVYYCARDYPLDDILTFPRVGTLDYWGQGTTVTVSS
VL: EIVLTQSPLSLPVTPGEPASISCRSSQSLLHSNGYNYLGWYLQKPGQSPQLLIYLGSNRASGVPDRFSGSGSGTDFTLKISRVEAEDVGVYYCMQALQTGFTFGPGTKVEIK
notes: Soluble scFv from a fully human phage library, made in E. coli TG1 and detected with APC anti 6XHis, so it carries a His tag; also called 抗体HTS0101; HTS0101
Turning to B1, the binding result was “binds”.

For the origin of these results see patent CN114075291A (THE FIRST AFFILIATED HOSPITAL OF NAVAL MEDICAL UNIV OF …, dated 2022).
